Results: publication PMC6810841

Target: BicDR1 E165R/E167K-GFP (mouse) (UniProt A0JNT9)
Sequence of UniProt A0JNT9 (A0JNT9 whole entry E165R/E167K): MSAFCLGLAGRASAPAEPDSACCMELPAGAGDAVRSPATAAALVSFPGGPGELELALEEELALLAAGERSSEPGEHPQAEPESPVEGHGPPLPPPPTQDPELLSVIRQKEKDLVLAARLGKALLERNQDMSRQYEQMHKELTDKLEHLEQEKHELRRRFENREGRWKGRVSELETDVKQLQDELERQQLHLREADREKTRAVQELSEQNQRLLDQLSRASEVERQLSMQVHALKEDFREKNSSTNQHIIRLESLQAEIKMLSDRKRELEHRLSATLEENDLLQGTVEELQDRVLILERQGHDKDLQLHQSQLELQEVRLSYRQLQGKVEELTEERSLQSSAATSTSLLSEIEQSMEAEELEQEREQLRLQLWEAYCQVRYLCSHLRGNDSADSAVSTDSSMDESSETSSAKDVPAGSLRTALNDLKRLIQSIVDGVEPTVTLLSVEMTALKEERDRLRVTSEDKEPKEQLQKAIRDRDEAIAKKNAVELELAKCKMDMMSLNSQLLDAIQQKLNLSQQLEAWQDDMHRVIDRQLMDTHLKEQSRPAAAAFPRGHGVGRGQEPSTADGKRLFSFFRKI

reduction of recruitment against BicDR1: 50%
Substance: dynein long tail (SNAP-DYNC1H1 1-1,074-GST with associated chains) (from UniProt Q14204;O43237;P63172;P63167;Q9NP97) (complex)
